From patent US6518016

Target: factor Xa-activated factor V(Q506) (UniProt P12259)
Sequence of UniProt P12259 (P12259 29-737 R534Q, chain 1 of 2): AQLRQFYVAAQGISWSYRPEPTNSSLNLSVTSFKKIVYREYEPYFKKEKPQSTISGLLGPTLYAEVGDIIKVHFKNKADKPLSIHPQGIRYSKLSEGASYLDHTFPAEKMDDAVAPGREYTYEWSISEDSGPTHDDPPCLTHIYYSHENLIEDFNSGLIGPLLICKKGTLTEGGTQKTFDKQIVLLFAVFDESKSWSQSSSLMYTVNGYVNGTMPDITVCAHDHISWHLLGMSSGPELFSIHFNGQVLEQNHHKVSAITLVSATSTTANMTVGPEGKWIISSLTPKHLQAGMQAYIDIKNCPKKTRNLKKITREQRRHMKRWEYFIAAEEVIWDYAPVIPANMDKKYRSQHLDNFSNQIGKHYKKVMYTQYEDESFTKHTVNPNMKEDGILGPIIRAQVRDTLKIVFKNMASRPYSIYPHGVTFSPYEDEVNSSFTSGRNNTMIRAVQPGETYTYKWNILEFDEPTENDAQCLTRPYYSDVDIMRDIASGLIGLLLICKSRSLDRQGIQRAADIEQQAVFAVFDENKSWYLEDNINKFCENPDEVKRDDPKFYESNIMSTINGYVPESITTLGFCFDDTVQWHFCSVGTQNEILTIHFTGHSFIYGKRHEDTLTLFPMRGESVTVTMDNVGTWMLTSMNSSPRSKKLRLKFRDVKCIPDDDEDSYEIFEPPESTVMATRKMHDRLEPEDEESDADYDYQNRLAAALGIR
Sequence of UniProt P12259 (P12259 1047-2224, chain 2 of 2): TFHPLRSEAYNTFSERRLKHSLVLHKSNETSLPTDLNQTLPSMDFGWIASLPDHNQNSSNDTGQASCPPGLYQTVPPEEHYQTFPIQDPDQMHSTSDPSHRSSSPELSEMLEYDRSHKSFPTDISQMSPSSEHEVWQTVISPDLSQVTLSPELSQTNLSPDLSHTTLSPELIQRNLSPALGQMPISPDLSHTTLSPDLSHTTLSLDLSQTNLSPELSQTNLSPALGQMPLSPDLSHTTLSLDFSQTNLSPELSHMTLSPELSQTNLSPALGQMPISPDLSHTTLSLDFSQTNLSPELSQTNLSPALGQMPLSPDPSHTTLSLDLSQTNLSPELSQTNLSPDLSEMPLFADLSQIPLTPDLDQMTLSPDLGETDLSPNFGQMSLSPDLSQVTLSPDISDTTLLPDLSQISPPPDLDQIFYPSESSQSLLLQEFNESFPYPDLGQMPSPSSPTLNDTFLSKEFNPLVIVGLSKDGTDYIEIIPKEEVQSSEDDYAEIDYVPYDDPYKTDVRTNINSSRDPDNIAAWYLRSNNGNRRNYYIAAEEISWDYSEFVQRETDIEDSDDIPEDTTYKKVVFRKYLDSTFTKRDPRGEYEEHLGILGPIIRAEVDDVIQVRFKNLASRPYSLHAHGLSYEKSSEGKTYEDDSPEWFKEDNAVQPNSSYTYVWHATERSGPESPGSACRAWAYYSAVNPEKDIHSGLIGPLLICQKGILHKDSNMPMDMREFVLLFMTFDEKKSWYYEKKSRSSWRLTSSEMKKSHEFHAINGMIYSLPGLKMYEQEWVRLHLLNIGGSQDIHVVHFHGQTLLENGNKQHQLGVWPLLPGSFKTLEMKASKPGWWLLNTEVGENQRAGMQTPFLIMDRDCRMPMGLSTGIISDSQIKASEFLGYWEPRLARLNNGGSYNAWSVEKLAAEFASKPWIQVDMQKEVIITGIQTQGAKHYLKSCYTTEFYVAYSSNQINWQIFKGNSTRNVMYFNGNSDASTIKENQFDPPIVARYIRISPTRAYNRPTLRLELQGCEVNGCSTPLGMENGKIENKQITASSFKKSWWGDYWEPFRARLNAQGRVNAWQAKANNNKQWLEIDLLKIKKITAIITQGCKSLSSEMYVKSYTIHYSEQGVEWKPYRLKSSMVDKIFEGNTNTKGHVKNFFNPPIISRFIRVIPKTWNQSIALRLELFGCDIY

Substance: activated protein C (APC)
- inactivation of factor Va activity by APC (factor Va activity over time after adding 1.9 nM APC): the replacement of Arg-506 by Gln only prevents the inactivation of the Xa-activated form of factor V by APC
